Tests used:
[1] = molecular target: T1, glycophorin A peptide GP5 (human, biotin at the N-terminus); assay: Octet, GP5 peptide on the probe, fusion protein in solution, 1:1 fit
T1 construct: Residues 42 to 61 of the human glycophorin A extracellular domain
T1 peptide: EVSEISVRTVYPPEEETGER

[2] = molecular target: T2, Rhesus monkey glycophorin A on Rhesus monkey red blood cells (Rhesus monkey, UniProt A0A1D5Q349 20-150); assay: FACS, RBC Rh01
T2 construct: whole, on cells; also called Rhesus RBC; monkey GPA
T2 sequence: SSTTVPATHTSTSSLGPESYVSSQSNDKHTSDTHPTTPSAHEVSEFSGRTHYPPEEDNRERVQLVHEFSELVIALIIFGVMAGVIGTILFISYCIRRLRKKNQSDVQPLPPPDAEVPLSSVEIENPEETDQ
Protocol: (§1) The binding of the humanized variants to intact red blood cells (RBC) from humans (Hu01 to 03; 3 individuals), Rhesus monkey (Rh01 to 03; 3 individuals) and Cynomolgus monkey (Cy01 to 02; 2 individuals) was measured by fluorescence activated cell sorting (FACS).

[3] = molecular target: T2, Rhesus monkey glycophorin A on Rhesus …; assay: FACS, RBC Rh02
[4] = molecular target: T3, purified human glycophorin A protein (Sigma, cat # G5017) (human, UniProt P02724 20-150); assay: ELISA, IgG
T3 construct: mature; also called Sigma hGPA; Sigma GPA
T3 sequence (looked up): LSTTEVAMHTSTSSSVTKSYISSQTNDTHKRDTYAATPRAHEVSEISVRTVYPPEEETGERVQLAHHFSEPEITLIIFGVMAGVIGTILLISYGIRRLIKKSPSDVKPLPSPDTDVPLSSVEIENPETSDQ

[5] = molecular target: T4, Cynomolgus monkey glycophorin A on Cynomolgus monkey red blood cells (Cynomolgus monkey); assay: FACS, RBC Cy01
T4 construct: whole, on cells; also called Cyno RBC; Cyno GPA
Protocol: as §1

[6] = molecular target: T5, human glycophorin A in the red blood cell membrane (human, UniProt P02724 20-150); assay: FACS, RBC Hu03
T5 construct: whole, on cells; used for intact RBC, isolated RBC membranes and transfected cells; the assay field tells which; also called GPA; hGPA
T5 sequence (looked up): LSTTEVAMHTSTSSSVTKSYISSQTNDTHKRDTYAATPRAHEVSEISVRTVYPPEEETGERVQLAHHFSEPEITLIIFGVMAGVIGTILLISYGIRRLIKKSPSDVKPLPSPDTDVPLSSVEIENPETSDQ
Protocol: as §1

[7] = molecular target: T5, human glycophorin A in the red blood …; assay: FACS, RBC Hu01
Protocol: as §1

[8] = molecular target: T5, human glycophorin A in the red blood …; assay: FACS, RBC Hu02
Protocol: as §1

[9] = molecular target: T4, Cynomolgus monkey glycophorin A on …; assay: FACS, RBC Cy02
Protocol: as §1

[10] = molecular target: T2, Rhesus monkey glycophorin A on Rhesus …; assay: FACS, RBC Rh03
Protocol: as §1

| Binder | Kd [1] [nM] | koff [1] [s⁻¹] | kon [1] [M⁻¹ s⁻¹] | fluorescence intensity [2] | fluorescence intensity [3] | EC50 [4] [nM] | fluorescence intensity [5] | fluorescence intensity [6] | fluorescence intensity [7] | fluorescence intensity [8] | fluorescence intensity [9] | fluorescence intensity [10] |
| --- | --- | --- | --- | --- | --- | --- | --- | --- | --- | --- | --- | --- |
| TPP-8744 FVIII-scFv fusion protein (other, The entry is the mature protein; mostly a 2 chain molecule) ATRRYYLGAVELSWDYMQSDLGELPVDARFPPRVPKSFPFNTSVVYKKTLFVEFTDHLFNIAKPRPPWMGLLGPTIQAEVYDTVVITLKNMASHPVSLHAVGVSYWKASEGAEYDDQTSQREKEDDKVFPGGSHTYVWQVLKENGPMASDPLCLTYSYLSHVDLVKDLNSGLIGALLVCREGSLAKEKTQTLHKFILLFAVFDEGKSWHSETKNSLMQDRDAASARAWPKMHTVNGYVNRSLPGLIGCHRKSVYWHVIGMGTTPEVHSIFLEGHTFLVRNHRQASLEISPITFLTAQTLLMDLGQFLLFCHISSHQHDGMEAYVKVDSCPEEPQLRMKNNEEAEDYDDDLTDSEMDVVRFDDDNSPSFIQIRSVAKKHPKTWVHYIAAEEEDWDYAPLVLAPDDRSYKSQYLNNGPQRIGRKYKKVRFMAYTDETFKTREAIQHESGILGPLLYGEVGDTLLIIFKNQASRPYNIYPHGITDVRPLYSRRLPKGVKHLKDFPILPGEIFKYKWTVTVEDGPTKSDPRCLTRYYSSFVNMERDLASGLIGPLLICYKESVDQRGNQIMSDKRNVILFSVFDENRSWYLTENIQRFLPNPAGVQLEDPEFQASNIMHSINGYVFDSLQLSVCLHEVAYWYILSIGAQTDFLSVFFSGYTFKHKMVYEDTLTLFPFSGETVFMSMENPGLWILGCHNSDFRNRGMTALLKVSSCDKNTGDYYEDSYEDISAYLLSKNNAIEPRSFSQNGGGGSTGGTGGSSGGGTGSGGGGTGGSGGTDIQLTQSPSFLSASVGDRVTITCRASSSVSYIYWFQQKPGKAPKLLIYATSTLQSGVPSRFSGSGSGTEYTLTISSLQPEDFATYYCHQRNSFPYTFGQGTKLEIKGGGGSGGGGSGGGGSGGGGSEVQLVQSGAEVKKPGASVKVSCKASGYTFTRYTIHWVRQAPGQGLEWMGYINPSSGYTRYNPKFKGRVTMTRDKSTSTAYMELRSLRSDDTAVYYCWTGTRDYWGQGTTVTVSSGGGGSQNPPVLKRHQREITDENQSPRSFQKKTRHYFIAAVERLWDYGMSSSPHVLRNRAQSGSVPQFKKVVFQEFTDGSFTQPLYRGELNEHLGLLGPYIRAEVEDNIMVTFRNQASRPYSFYSSLISYEEDQRQGAEPRKNFVKPNETKTYFWKVQHHMAPTKDEFDCKAWAYFSDVDLEKDVHSGLIGPLLVCHTNTLNPAHGRQVTVQEFALFFTIFDETKSWYFTENMERNCRAPCNIQMEDPTFKENYRFHAINGYIMDTLPGLVMAQDQRIRWYLLSMGSNENIHSIHFSGHVFTVRKKEEYKMALYNLYPGVFETVEMLPSKAGIWRVECLIGEHLHAGMSTLFLVYSNKCQTPLGMASGHIRDFQITASGQYGQWAPKLARLHYSGSINAWSTKEPFSWIKVDLLAPMIIHGIKTQGARQKFSSLYISQFIIMYSLDGKKWQTYRGNSTGTLMVFFGNVDSSGIKHNIFNPPIIARYIRLHPTHYSIRSTLRMELMGCDLNSCSMPLGMESKAISDAQITASSYFTNMFATWSPSKARLHLQGRSNAWRPQVNNPKEWLQVDFQKTMKVTGVTTQGVKSLLTSMYVKEFLISSSQDGHQWTLFFQNGKVKVFQGNQDSFTPVVNSLDPPLLTRYLRIHPQSWVHQIALRMEVLGCEAQDLY | 7.35 | 0.0048 | 652000 |  |  |  |  |  |  |  |  |  |
| Hu6C12-12 (antibody, V domains shown, IgG format; VH.1c + Vk.1a) VH: EVQLVQSGAEVKKPGASVKVSCKASGYTFTTYTIHWVRQAPGQGLEWMGYINPSSDYTRYNPKFKDRVTMTTDTSTSTAYMELRSLRSDDTAVYYCQTGTRDYWGQGTTVTVSS VL: DIQLTQSPSFLSASVGDRVTITCSAASSVSYIYWYQQKPGKAPKLLIYSTSTLPSGVPSRFSGSGSGTEYTLTISSLQPEDFATYYCHQRNSFPFTFGQGTKLEIK |  |  |  | 1480 | 1400 | 10.4 | 959 | 484 | 646 | 393 | 1030 | 1410 |
| Hu6C12-15 (antibody, V domains shown, IgG format; VH.1f + Vk.1a) VH: EVQLVQSGAEVKKPGASVKVSCKASGYTFTTYTIHWVRQAPGQGLEWMGYINPSSDYTRYNPKFKDRVTLTTDTSTSTAYMELRSLRSDDTAVYYCQTGTRDYWGQGTTVTVSS VL: DIQLTQSPSFLSASVGDRVTITCSAASSVSYIYWYQQKPGKAPKLLIYSTSTLPSGVPSRFSGSGSGTEYTLTISSLQPEDFATYYCHQRNSFPFTFGQGTKLEIK |  |  |  | 1520 | 1480 | 9.69 | 1010 | 482 | 590 | 375 | 1070 | 1490 |
| Hu6C12-21 (antibody, V domains shown, IgG format; VH.1d + Vk.1b) VH: EVQLVQSGAEVKKPGASVKVSCKASGYTFTTYTIHWVRQAPGQGLEWMGYINPSSDYTRYNPKFKDRVTLTTDTSTSTAYMELRSLRSDDTAVYYCQRGTRDYWGQGTTVTVSS VL: DIQLTQSPSFLSASVGDRVTITCSAASSVSYIYWFQQKPGKAPKLLIYSTSTLPSGVPSRFSGSGSGTEYTLTISSLQPEDFATYYCHQRNSFPFTFGQGTKLEIK |  |  |  | 1470 | 1330 |  | 908 |  |  |  | 1120 | 1340 |
| Hu6C12-5 (antibody, V domains shown, IgG format; VH.1e + Vk.1) VH: EVQLVQSGAEVKKPGASVKVSCKASGYTFTTYTIHWVRQAPGQGLEWMGYINPSSDYTRYNPKFKDRVTLTTDTSTSTAYMELRSLRSDDTAVYYCATGTRDYWGQGTTVTVSS VL: DIQLTQSPSFLSASVGDRVTITCSAASSVSYIYWYQQKPGKAPKLLIYSTSTLPSGVPSRFSGSGSGTEFTLTISSLQPEDFATYYCHQRNSFPFTFGQGTKLEIK |  |  |  | 1660 | 1550 | 8.45 | 1070 | 758 | 921 | 625 | 1140 | 1560 |
| Hu6C12-2 (antibody, V domains shown, IgG format; VH.1b + Vk.1) VH: EVQLVQSGAEVKKPGASVKVSCKASGYTFTTYTIHWVRQAPGQGLEWMGYINPSSDYTRYNPKFKDRVTMTTDTSTSTAYMELRSLRSDDTAVYYCATGTRDYWGQGTTVTVSS VL: DIQLTQSPSFLSASVGDRVTITCSAASSVSYIYWYQQKPGKAPKLLIYSTSTLPSGVPSRFSGSGSGTEFTLTISSLQPEDFATYYCHQRNSFPFTFGQGTKLEIK |  |  |  | 1530 | 1400 | 8.65 | 962 | 716 | 897 | 603 | 1030 | 1380 |
| Hu6C12-3 (antibody, V domains shown, IgG format; VH.1c + Vk.1) VH: EVQLVQSGAEVKKPGASVKVSCKASGYTFTTYTIHWVRQAPGQGLEWMGYINPSSDYTRYNPKFKDRVTMTTDTSTSTAYMELRSLRSDDTAVYYCQTGTRDYWGQGTTVTVSS VL: DIQLTQSPSFLSASVGDRVTITCSAASSVSYIYWYQQKPGKAPKLLIYSTSTLPSGVPSRFSGSGSGTEFTLTISSLQPEDFATYYCHQRNSFPFTFGQGTKLEIK |  |  |  | 1730 | 1600 | 2.17 | 1120 | 862 | 1070 | 739 | 1200 | 1600 |
| Hu6C12-14 (antibody, V domains shown, IgG format; VH.1e + Vk.1a) VH: EVQLVQSGAEVKKPGASVKVSCKASGYTFTTYTIHWVRQAPGQGLEWMGYINPSSDYTRYNPKFKDRVTLTTDTSTSTAYMELRSLRSDDTAVYYCATGTRDYWGQGTTVTVSS VL: DIQLTQSPSFLSASVGDRVTITCSAASSVSYIYWYQQKPGKAPKLLIYSTSTLPSGVPSRFSGSGSGTEYTLTISSLQPEDFATYYCHQRNSFPFTFGQGTKLEIK |  |  |  | 1480 | 1480 |  | 978 | 384 | 514 | 298 | 1080 | 1480 |
| Hu6C12-11 (antibody, V domains shown, IgG format; VH.1b + Vk.1a) VH: EVQLVQSGAEVKKPGASVKVSCKASGYTFTTYTIHWVRQAPGQGLEWMGYINPSSDYTRYNPKFKDRVTMTTDTSTSTAYMELRSLRSDDTAVYYCATGTRDYWGQGTTVTVSS VL: DIQLTQSPSFLSASVGDRVTITCSAASSVSYIYWYQQKPGKAPKLLIYSTSTLPSGVPSRFSGSGSGTEYTLTISSLQPEDFATYYCHQRNSFPFTFGQGTKLEIK |  |  |  | 1530 | 1440 |  | 960 | 387 | 548 | 315 | 1020 | 1420 |
